The values below come from patent US9527913B2, “Humanized pan-HER antibody compositions” (Symphogen A/S, priority 2012, dated 2016).

Where two headings read alike, the source gives them in different places.

For experiment [1], the system named is patient-derived xenograft models of pancreatic cancer. The following applies: cited from earlier work.
The next experiment relates to MDA-MB-175-VII cells. The experiment can be described thus: WST-1 metabolic activity, parental and pertuzumab resistant cells (Example 5). The following applies: 96 hours. It counts as cell-based, human. Here is the method:
Cells were split once or twice a week in order to keep cells in exponential growth. The level of resistance was tested every month in a WST-1 viability assay as described in Example 2, until a pool of resistant cells was established.
Metabolic activity was determined after 96 hours incubation using a similar WST-1 assay as described in Example 2.
In general terms: Tetrazolium dyes change colour on reduction, which living cells bring about.

Experiment [2] deals with A431NS, H358, FaDu, OE19, BT474, MDA-MB-175 VII, MCF-7, N87, HN5, MFE-280 cancer cell lines. The experiment can be described thus: Viability assay (WST-1) of humanized variants with partner antibody and of six-antibody mixtures. It counts as cell-based, human. The following applies: two cell lines per variant, 96 hours. Here is the method: Each humanized variant was tested in two cell lines and compared to the parental mixture of two chimeric antibodies and to a negative control antibody. […] In addition, a combination of six humanized variants (11294, 11302, 11249, 11145, 10738 and 11052; Humanized Pan-HER) was tested in a number of cell lines and compared to the combination of the six chimeric antibodies (1277, 1565, 4384, 4517, 5038 and 5082; Chimeric Pan-HER). The cell lines used, N87 gastric, FaDu head and neck, A431NS epidermoid, OE19 esophageal, HN5 head and neck, MDA-MB-175 VII breast and MFE-280 endometrial cancer, were selected on the basis of their previously determined dependency on the HER family receptors.
Prior to performing the viability assay the appropriate antibodies and antibody mixtures were diluted to a final total antibody concentration of 100 μg/ml in appropriate media supplemented with 0.5-2% FBS and 1% P/S (penicillin/streptomycin), yielding a final total antibody concentration of 50 μg/ml in the well containing the highest antibody concentration. A threefold serial dilution of the antibodies was then performed in a 384-well plate, followed by addition of relevant numbers of cells to the experimental wells. The MCF-7 cells were also stimulated with 1 nM heregulin beta. The plates were incubated for 4 days in a humidified incubator at 37° C. WST-1 reagent (Roche Applied Science, Mannheim, Germany) was added to the plates and the plates were incubated for 1-3 h at 37° C. Plates were transferred to an orbital plate shaker for one h and the absorbance was measured at 450 and 620 nm (reference wavelength) using an ELISA reader. The percentage of metabolically active cells (MAC) is calculated as a percentage of the untreated control as follows: […]

A further experiment relates to cynomolgus HER3. The experiment can be described thus: Kinetic binding analysis by surface plasmon resonance (ProteOn XPR36, IgG capture). To be noted: Cynomolgus antigen. Here is the method: (§1) Kinetic binding analysis of the purified humanized variants was performed on a ProteOn™ XPR36 biosensor (BioRad, USA) employing an IgG capture assay as described by Canziani et al. (Anal. Biochem. (2004) 325:301-307) that allows for measurement of antibody affinities of whole IgG molecules against soluble antigen under monovalent conditions. Briefly, approximately 5000 resonance units (RU) of a monoclonal mouse anti-human IgG Fc antibody (GE Healthcare, Denmark) was conjugated to a GLC chip surface (BioRad, USA) according to the manufacturer's instructions, followed by capture of individual antibodies of the invention or a negative control on the anti-Fc sensor surface. […] Next, 250 μl monovalent antigen (Sino Biologicals) was injected at a flow rate of 50 μl/min in serial threefold dilutions from 100 nM stock to generate response curves. The chip surface was regenerated between cycles by stripping the captured antibody/antigen complexes off the surface with a 10-second injection of 3 M MgCl2 (GE Healthcare, Denmark) repeated three times. Finally, binding responses were fitted to a Langmuir 1:1 binding model for calculation of the on-rate (kon or ka), off-rate (koff or kd) and affinity (KD) constants using double referencing.
(SPR reads the build-up and loss of mass on a sensor chip optically.)

The target in another experiment is T1, human HER3 (Homo sapiens, UniProt P21860).
T1 construct: against soluble antigen under monovalent conditions; purchased Sino Biologicals
The description is as above. The following applies: Human antigen. Here is the method: as §1

In experiment [3] the test system is EGFR, HER2 and HER3 from humans, cynomolgus monkeys and mice, human and murine HER4. The experiment can be described thus: Cross-reactivity ELISA with coated antigens. It counts as binding, mouse. The following applies: OD at 450 nm, 40 nM antibody, compared to chimeric parent. Here is the method:
Antibody-antigen binding was measured by ELISA with coated antigens. Human antigens were obtained from Sino Biologicals. All other antigens were produced in-house by transient expression in CHO or HEK293 cells. Chimeric and humanized antibodies, as well as an isotype control antibody, were incubated with the coated antigens at different concentrations. After wash, bound antibodies were detected by HRP-(horse radish peroxidase)-conjugated secondary antibodies. The OD signal from 40 nM antibody, measured at 450 nm using an ELISA reader, was scored from negative (−; OD<0.1) to strongly positive (+++; OD>2.5).
In general terms: In an ELISA, binding on a coated surface is turned into a signal by an enzyme label.

The test system of experiment [4] is EGFR, HER2 and HER3 in OVCAR-8 cells. As to the kind of experiment: Western blot of EGFR, HER2 and HER3 in whole cell lysates (Example 6). It counts as cell-based, human. The following applies: OVCAR-8, 20 μg/ml, 48 hour.
Experiment [5] deals with EGFR, HER2 and HER3 in H292 cells. The description is as above. To be noted: H292, 20 μg/ml, 48 hour. It counts as cell-based, human.
For a further experiment, the system named is cynomolgus EGFR. As to the kind of experiment: Kinetic binding analysis by surface plasmon resonance (ProteOn XPR36, IgG capture). To be noted: Cynomolgus antigen. Here is the method: as §1

As for `C#Cc1cccc(Nc2ncnc3cc(OCCOC)c(OCCOC)cc23)c1` [Erlotinib], the Erlotinib resistant result in experiment [1] (model ST191) was “Yes”; in experiment [1] (model ST334), “Yes”; in [1] (model ST383), “Yes”; in experiment [1] (model ST385) it was “Yes”; in [1] (model STS021), “No”; in [1] (model STS058), “Yes”. Also, the Erlotinib resistant entry in experiment [1] (model STS059) is recorded as “Yes”.
As for pertuzumab, the metabolic activity entry was “reduced” with MDA-MB-175-VII cells (parental MDA-MB-175-VII cells) and “unaltered” in the experiment on MDA-MB-175-VII cells (pertuzumab resistant MDA-MB-175-VII cells).

B1: antibody 11052: humanized anti-HER3 antibody from chimeric parent 5082; HC SEQ ID NO: 60, LC SEQ ID NO: 61 (antibody, V domains shown)
VH: QVQLQESGPGLVKPSQTLSLTCTVSGYSITSAYYWNWIRQFPGKGVEWMGYIGYSGRNTYNPSLKNRVTISRDTSKNQFSLKLSSVTAADTAVYYCSREGDYGYSDYWGQGTLVTVSS
VL: DIQMTQSPSSLSASVGDRVTVTCRASQDINNYLNWYQQKPGKAVKLLIYYTSRLQSGVPSRFSGSGSGTDYTLTISSLQPEDFATYFCQQSETLPWTFGQGTKLEIK
For the molecule B1, the “anti-proliferative effect in combination with partner antibody, compared to mixture of the two chimeric parent antibodies” value in experiment [2] is given as “highly similar anti-proliferative effects”. The ka in the experiment with cynomolgus HER3 turned out to be 1.3e+06 M⁻¹ s⁻¹; in the experiment with human HER3, 870000 M⁻¹ s⁻¹. Besides, the kd is 0.00026 s⁻¹ on cynomolgus HER3 and 0.00016 s⁻¹ with human HER3. In experiment [3], the “cross-reactivity pattern with HER family antigens” value was “binding to the same human and cynomolgus antigen combined with lack of binding to the mouse antigen or to other EGFR family receptors”.

B2: MM-121: anti-HER3 treatment lane in the OVCAR-8 Western blot (antibody, chains of the INN, looked up)
heavy: EVQLLESGGGLVQPGGSLRLSCAASGFTFSHYVMAWVRQAPGKGLEWVSSISSSGGWTLYADSVKGRFTISRDNSKNTLYLQMNSLRAEDTAVYYCTRGLKMATIFDYWGQGTLVTVSSASTKGPSVFPLAPCSRSTSESTAALGCLVKDYFPEPVTVSWNSGALTSGVHTFPAVLQSSGLYSLSSVVTVPSSNFGTQTYTCNVDHKPSNTKVDKTVERKCCVECPPCPAPPVAGPSVFLFPPKPKDTLMISRTPEVTCVVVDVSHEDPEVQFNWYVDGVEVHNAKTKPREEQFNSTFRVVSVLTVVHQDWLNGKEYKCKVSNKGLPAPIEKTISKTKGQPREPQVYTLPPSREEMTKNQVSLTCLVKGFYPSDIAVEWESNGQPENNYKTTPPMLDSDGSFFLYSKLTVDKSRWQQGNVFSCSVMHEALHNHYTQKSLSLSPG
light: QSALTQPASVSGSPGQSITISCTGTSSDVGSYNVVSWYQQHPGKAPKLIIYEVSQRPSGVSNRFSGSKSGNTASLTISGLQTEDEADYYCCSYAGSSIFVIFGGGTKVTVLGQPKAAPSVTLFPPSSEELQANKATLVCLVSDFYPGAVTVAWKADGSPVKVGVETTKPSKQSNNKYAASSYLSLTPEQWKSHRSYSCRVTHEGSTVEKTVAPAECS
As to B2, the “EGFR, HER2 and HER3 levels in whole cell lysates” value (from here on “EGFR, HER2 and HER3 levels”) in [4] is given as “HER2 up-regulation”.

B3: antibody 1565: chimeric parent anti-EGFR antibody disclosed in WO 2012/059857; VH SEQ ID NO: 19, light chain SEQ ID NO: 21 (antibody)
VH: RAEVQLQQSGTELVKPGASVILSCKASGYTFTSYWMQWVKQRPGQGLEWIGNINPSNGGTSFNEEFKSRATLTVDKSSSTAYMQLSSLTSEDSAVYYCARDGGLYDGYYFDFWGQGTTLTVS
light: LANIVMTQSHKFMSTLIGARVSITCKASQDVDTAVAWYQQKPGQSPKLLIYWASTRHTGVPDRFTGSGSGTDFSLTVSNVQSEDLTDYFCQQYSSYPLTFGAGTKLELKRTVAAPSVFIFPPSDEQLKSGTASVVCLLNNFYPREAKVQWKVDNALQSGNSQESVTEQDSKDSTYSLSSTLTLSKADYEKHKVYACEVTHQGLSSPVTKSFNRGEC
Turning to B3, in experiment [5], the “EGFR, HER2 and HER3 levels” value is listed as “HER2 upregulation”. In the experiment on cynomolgus EGFR, this molecule showed a ka of 580000 M⁻¹ s⁻¹ and a kd of 0.016 s⁻¹.

B4: antibody 1277: chimeric parent anti-EGFR antibody disclosed in WO 2012/059857; VH SEQ ID NO: 15, light chain SEQ ID NO: 17 (antibody)
VH: RAEVQLVESGGGLVKPGESLKLSCAASGFAFSYSDMSWVRQTPEKRLEWVAYMSSAGDVTFYSDTVKGRFTISRDNAKNTLYLQVSSLKSEDTAIYYCVRHRDVAMDYWGQGTSVTVS
light: LADVVMTQTPLSLPVSLGDQASISCRSSQSLVHSNGNTYLHWYLQKPGQSPKLLIYKVSNRFSGVPDRFSGSGSGTDFTLKISRVEAEDLGVYFCSQSTHVPTFGGGTKLEIKRTVAAPSVFIFPPSDEQLKSGTASVVCLLNNFYPREAKVQWKVDNALQSGNSQESVTEQDSKDSTYSLSSTLTLSKADYEKHKVYACEVTHQGLSSPVTKSFNRGEC
Turning to B4, in [5], the “EGFR, HER2 and HER3 levels” value is given as “HER2 upregulation”. In addition, in the experiment with cynomolgus EGFR, the ka was found to be 660000 M⁻¹ s⁻¹ and the kd was determined as 0.00039 s⁻¹.

B5: antibody 10810: humanized anti-HER3 antibody from chimeric parent 5038; HC SEQ ID NO: 56, LC SEQ ID NO: 57 (antibody, V domains shown)
VH: QVQLQESGPGLVKPSQTLSLTCTVSGYSITSGFYWTWIRQHPGNGLEWIGFISYSGSNNYNPSLKNRVTISVDTSKNQFSLKLSSVTAADTATYYCARGGGYYGNLFDYWGQGTLVTVSS
VL: DIQMTQSPSSLSASVGDRVTITCRPSQDISNYVNWFQQKPGKAPKLLIFHTSRLHSGVPSRFSGSGSGTDFTLTISSLQPEDIATYYCQQGITLPWTFGQGTKVEIK
With B5, the “anti-proliferative effect in combination with partner antibody, compared to mixture of the two chimeric parent antibodies” value in [2] is “highly similar anti-proliferative effects”. In addition, in the experiment with cynomolgus HER3, the ka came to 470000 M⁻¹ s⁻¹ and the kd came out at 0.00034 s⁻¹. In the experiment with human HER3, this molecule yielded a ka of 190000 M⁻¹ s⁻¹ and a kd of 0.0002 s⁻¹. Further, the “cross-reactivity pattern with HER family antigens” value in experiment [3] was “binding to the same human and cynomolgus antigen combined with lack of binding to the mouse antigen or to other EGFR family receptors”.
